Reference: publication doi:10.1101/2025.06.28.661730

Target: complement receptor 2 (CR2, CD21) on human follicular dendritic cells (human (endogenous in tonsil FDCs)) (UniProt P20023)
Sequence (P20023 21-1033): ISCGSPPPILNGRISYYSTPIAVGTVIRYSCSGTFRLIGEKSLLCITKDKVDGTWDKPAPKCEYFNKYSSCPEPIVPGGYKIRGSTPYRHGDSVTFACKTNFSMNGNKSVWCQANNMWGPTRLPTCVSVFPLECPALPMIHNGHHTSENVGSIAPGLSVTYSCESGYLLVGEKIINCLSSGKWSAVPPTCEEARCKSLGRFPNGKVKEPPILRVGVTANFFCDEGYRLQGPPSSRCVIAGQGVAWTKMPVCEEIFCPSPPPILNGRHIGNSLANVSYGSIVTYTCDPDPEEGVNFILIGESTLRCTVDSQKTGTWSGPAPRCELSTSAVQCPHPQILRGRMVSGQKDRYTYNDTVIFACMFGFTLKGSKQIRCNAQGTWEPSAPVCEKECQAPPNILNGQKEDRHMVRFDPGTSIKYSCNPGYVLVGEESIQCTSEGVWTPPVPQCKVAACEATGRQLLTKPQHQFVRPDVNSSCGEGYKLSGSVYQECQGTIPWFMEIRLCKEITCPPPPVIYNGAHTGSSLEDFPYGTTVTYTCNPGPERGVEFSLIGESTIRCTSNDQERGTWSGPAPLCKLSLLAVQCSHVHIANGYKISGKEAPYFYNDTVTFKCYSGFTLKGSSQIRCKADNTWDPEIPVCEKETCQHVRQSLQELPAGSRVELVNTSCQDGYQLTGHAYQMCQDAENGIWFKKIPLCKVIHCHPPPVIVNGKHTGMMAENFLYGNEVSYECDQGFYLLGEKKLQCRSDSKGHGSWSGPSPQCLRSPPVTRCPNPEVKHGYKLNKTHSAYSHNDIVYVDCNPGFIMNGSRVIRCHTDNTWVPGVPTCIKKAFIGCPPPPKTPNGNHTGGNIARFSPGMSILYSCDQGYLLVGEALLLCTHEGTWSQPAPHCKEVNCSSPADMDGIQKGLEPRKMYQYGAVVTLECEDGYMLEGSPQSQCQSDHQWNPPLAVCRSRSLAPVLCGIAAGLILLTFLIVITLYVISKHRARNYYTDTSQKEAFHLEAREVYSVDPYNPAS

## ConM SOSIP.v7 Env trimer fused to human complement fragment C3d (from UniProt P01024 1002-1303)
  Ca2+ flux of PGT121-expressing Ramos B cells, AUC at 0.01 µg/ml Env-equivalent (tested at 10, 1, 0.1, 0.01 and 0.001 µg/ml); ConM Env alone gave AUC 5: 442 AUC
